Biological target: lysozyme (UniProt P00698 19-147)
Assay: electrochemical impedance spectroscopy (EIS); dense aptamer SAM (no MCH dilution), ferricyanide reporter; RCT change significant from 8 nM (LOD), up to 12%; 1x HBS, pH 7.4, redox reporter (ferricyanide or methylene blue) in solution; aptamer on gold electrode; temperature not stated
Details: protein: commercial

Chain of lysozyme (P00698 19-147): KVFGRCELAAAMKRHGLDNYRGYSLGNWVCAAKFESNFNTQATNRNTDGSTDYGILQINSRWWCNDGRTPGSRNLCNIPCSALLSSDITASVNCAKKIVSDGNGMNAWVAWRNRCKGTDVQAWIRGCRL

B1: lysozyme aptamer (thiolated) (ssDNA)
DNA: AGCAGCACAGAGGTCAGATGGCAGGTAAGCAGGCGGCTCACAAAACCATTCGCATGCGGC
modifications: 5' thiol-C6 (SH-C6), immobilized on gold in SAM
  binding result: binds
